Test results as given in the DeepSol protein solubility set.

experiment: soluble on expression in E. coli; label from the status in PepcDB or PDB records

Soluble on expression in E. coli, not soluble:
MGSDKIHHHHHHLSPSVYPKSMADMETIVTSVYANMVAVPLYGKRVMAKGTFCVDHTVDMAWTGDANWNQLATNQVTSDNAYIGTLWIGYYKMISCANTVLEQLERIDKEKFTDADLARLSQMKGEALFWRGWAHQQLVAFFGEGYPCNGDGDKKGVPVRLQVASTPDMLNIERSTVAEVYDQILKDYEAAKLLLPAVWEERADYPRPTSVAVASYIGQANLYMGNYDAAKKALKEVIDSSGKELLPFNEYAKMFNEDQEKFNRESILEINFRNGDTSGYFWYGEGSQYGLIAALCFQNASGDVEAAGWGNIFFHDANIKRFNGDPRLDIAALRPGTPVIMNGQQTQVLKYKDTEADIQGWSMRKYNPLKSTVNELNLGVGINMYLMRLADVYLMYAEACQATGDEVNARNYMNLVRRRAYNGDSSHDITASGEALRDAIREERFMEFCGEGVQHWQDVCRWKVLDEEISRWYGKTRVGNPHYDAKDLYFPIPKVEMENNPNMTQSIGYENE, MGSDKIHHHHHHLTEFTLMVAPNGARRGKADHPALPMTAPELAETALACHRLGAQALHLHVRDAEGVHSLDAGRYREAMSLVSEAVPTMGIQITTESAGLFDVGAQLACLEALRPAAASVSVREMARDKSLAARAYALCSEAGTQVQHILYTPECVEQLEAWYADGTVPDEMRDVILVLGQYATGQPARPAMLPPFLALIAPLDLRWSLCAFGPEEHACLLAAVEAGGQVRIGFENSLGPMGGPAWADNAASVEAFLNLTVARGHTLDPHQNMPGANLRELT, MGSDKIHHHHHHLTLESKYHKKPEEIEEEQLWIEKAKQNPQHFAVLYEKYYKTIFLYLFRKVNDMDVAGDLCSDVFSKALSAIQSYEYKGVPYSAWLYRIAANEANMYFRKHNKREMICIDDTSIHLLNEDLQESNEENIYLTFLPLCLERLKPDEVILVQWRFFENKAFKEVGEIMNMTENNAKVKTYRILEKIRKWMLEMKGKSNE, MGSDKIHHHHHHLVEKRRVMSNLETNQGRLAAIETFAERCPDCGSLLYRPKGLSKVTGKKMAGVCMNCGYKQPPTEPKNVTPDMEKEARKNRTVGYYLAYSVFSTDAIIAKDFNNFHTDGSLGQQQLKLFAVGLSNKICRNEVVHALIIGDTGVGKSHIANGILIDTQAKTGYRKTCLFIDWNALMQRLKSGMSANAQDVRMKNEKIMHEIGKADVVVIDDLGSERGSDFDRQTADDVFRMREDKATIVTTNLHGQDLNKRYGERTMSRMAKHGQGNSFGVKGILDQRKEALP, MGSDKIHHHHHHMAADVATPFQQLRINKFAAIQNGQFVASFKVPRSAGFTLIIPNADDFLTNNISIMTPDNKVLDASNFAAFGVEFSQFSPDNELTAFLATGNSWIIKFSDVIPGSYTVRGVTSSAKSHLPIRVLVKNSDIALHLVIGSPSNIPMVNHHLPISVLMVDGDLPYINGNVSFEIFKDGEALQHANIRDDGVYPDYQANDGTYSTLFMPLSAGVYDVLINISGRNKNGDKFEAQIFRSFKVLQDNVYLTGKHSEVLIDEDGDGYNDALMLEFETGGVFQEEGVYYITVNLETNDGRTLVAHQRIESPEKKFYVKFDGKYLGTLDYSGAFKFFSIVIEYNDSIIHLNQSFGSTSYYDHDSWERDDLLYLGNVTFEPIYSADGRFIEMIDVSFEVDTLPTAARFGYSATITTVGNEHVGVYGNPDIELKKGINRITFSIPAADFAKLQSNTALKISQLTMYPLIKGGNVISKRNVATSELYSCWDFRGCSTAENAIPVAVDDEVTSTGKAMYIHVAQNDYDGDLLKVSDQKKDNFGTLTQWSIQFD, MGSDKIHHHHHHMAAKPPLTLYLAAPRGFCAGVDRAIKIVEMALEKWGAPVYVRHEIVHNKFVVDGLRDKGAVFVEELEECPDDRPVIFSAHGVPKSVPAAAEARQMVYVDATCPLVSKVHIEAQRHAEAGLQMIMIGHKGHPETVGTMGQLPEGEVLLVETVEDVAQVEVRDPERLAFVTQTTLSVDDTKDIVAALQARFPAIVGPHKEDICYATTNRQEAVKEVAPKADALLVVGAPNSSNSRRLVEVGAKNGCSYAQLVQRAENIDWRALEGIQSIAITAGASAPELLVNEVIDAFRDRYEVTVELVETAVERVEFKVPRVLRTA, MGSDKIHHHHHHMADNVKANKMNSQADDDIGFGIYTDIADLPMTGCPSYIEEGIGGVCESGTATIVVFDVPFQIVPNVVITLMPWQLVFIKEISEDFRITFFKISKDMFSETLSTLWRPASGFLLYMRKHIVSIPDGELIGRFLAYCNLLVYRMKHTPQNCRQESIMQLLRVYFWDVYTVYINDPQAEKSLKFTRKDEYVYQFVRLIIEDHSPDKDVAYFAQKLGISPKRLTNLIRSISGQSAREWIVYYTILEIKSLLRESSLDIKSIAARVNFPDQTTLSRYFRHYTGVTPSQYRKNIYF, MGSDKIHHHHHHMAESKIAERAFYQPGASSIEGMPTTLQLFHNHPPIMLRPHWHAQVEVNYVMSGSVHYRMGDHDLTLNAGQMCIFWGGQPHQMDRSSDDSFYAGAHLPLVHFFRMRLPAAISSQLMDGATMVSGETDRADAENFGRWFRYVTSGDPAKAQHAVEELLLRVERMFLEPYSVISSADHGKRKEDDEGMAPSIGVVRMCDFIAANFLDDIDAADIARAASLHPKYAMNLFRKSTGMTLIKYLTLLRLSRAQAMLMTGKDNILQIAMESGFGSVSAFNKAFRQISGMSPSDFRRDMRAAAA, MGSDKIHHHHHHMAFAQLQIVSSLADAYSKDGADALILIGNFDSIDDSALAETIQQAQITDQRVGKQPLLLKADGVPGQRLVAAPTGPLNRDFDDVRQVFDAAHAAAKVAQDAGARHPVIALNNVNVNDERYQQAFLAAYLGFCQALYQPLEAREAHGEEAIEPTQNVILVGELDVEWAMAVEAGKRVARDLAGTEPERMAPPKFAEYCRQAFAHTSVKVTVIDDYQQLQHEYPLLAAVGRSSMAVERHRPCVIRLEYHGNNPERTVMFAGKGIVYDTGGADLKTGGHMAGMSRDKGGAAGVAGFLKTVSELQPEHLNVVAEIGAVRNSIGSDAFVADEIITGHSGKRVRIGNTDAEGRLIMADLLSHLREEAAKSDGEHELYTVATLTGHAALSKGPYSALVPNGHARRQNLAQALFNAGETYGDPTEISWSRREDFDFVKGRTLCDDLLSSNNGPSAATPRGHQFPMAFLTGVSGLDNHGIDSEHPISYIHIDIAGSGVEGGDWQHGKPTAAPVTCLAGHYLKK, MGSDKIHHHHHHMAFTNNVMIVRHGLLAKLVKLWKENRLLEEIDRLPIELSPRKSKVRGRCCVHKERAVWKYKTLPLLGFDMQDEEDELTPLSEYAKRALFRSENKKENIMCVVDEACSSCVSVNYEITNLCRGCVARSCYMNCPKDAIRFKKNGQAEIDHETCISCGKCHQSCPYHAIVYIPIPCEEVCPVKAISKDKYGVEHIDESKCIYCGKCVNACPFGAIFEISQVFDILQRLRNKEQMVAIVAPSILAQFSAPKEKVYGAIKSLGFEEVVEVAQGAMETTRHEAEELIEKLKEGQPFMTTSCCPSYVQLAEKHIPDLKKYISSTGSPMYYTARIVKEKYPDAKIVFVGPCVAKRKEVKLDPCVDFTLTFEEVGSVLEGLGIKIEEAQPFSVLFNAVREAHGFAQSGGVINAVKVYLKDENVNAVQVANLTKKNVALLRAYAKTGKAPAQFIEVMACEGGCVTGPCTHADKTAGQKQLIKELTKF, MGSDKIHHHHHHMAGEDRDMETETETVCPGNTAGRFAAGEDPAKRDQILAGAWRVFKLKGFDAASMNDITREAGVSKGTIYVYFSNKEDLFAALVDHHRQEFATSMRNILAGTEEVRKGLEQFGKAFANKMICSDMIPAMRSVIGVIDRMPKLAQRFFIAAPNNVRTVLQDFIEHHIALGHLKVDDVELAARQYIELSTGTFFKLRLFGEIDGPVPEEELDRVIASAIKVFMAAYGTDKV, MGSDKIHHHHHHMAGLERGELRQALLAEVKKVCAGQGPEAVSISKIGKSLGVSSGAPFRLFPSREHIFAALIESEMERLDATFERIWSCKTTDPVLRLTDICQAYVDHARTEPAMFRLAFSVSAKAMGAVKLQKIGEDVYEKVQRAVAACVPRHTTTDQVELKSYLLWSTIHGHVMLCMTGQMDDQSIDLPDEIVVASAVQGILKAG, MGSDKIHHHHHHMAGTHLFHGCQAAPLLPESTPFYCTRTIFFKPAFYCVEGSGVKTNPMKINAGTPDSVNQQVIVIGAGVIGLANAVTLARRGFKVTVIDKEGVAAGASFGNAGHFATEQVFPLADPSLLPKLPKMLLDPLGPFRIRPAYFHRALPWFVRFIVNMMPARRQHNGNAIKALNARSMAATKELLTFCGRADLLVENGSLLVFETQDPRVMEQELALYNDAGIAVRLLSGDEARALEPDLSDAISGALWFTEVGHTPNPRAICEALADTLKALGGRIEIDSVCSLQGGNTPSVTTETGKVTKADKLLLCAGAWSRPLALKLGHRVPLETERGYHLMMPQHSGLKRPVASYERKFIITPMEDGTRLAGTVEFGGLNAPMSNARADCLLPHARVLLPKVFATARVSEGKRWMGFRPSLPDSLPVLGESQTPGVYFAFGHQHLGLTWAASSAELLGQLICGETPSIDLSPYCVKRFD, MGSDKIHHHHHHMAGVTKLTIAGFKSIRELRDFELRNLNVLIGANGAGKSNFIGFFKLLAEMYERRLQLFVQQQGGSDTLLHFSRKLTDKIEGELNFGTDYDHYRFELVVTNDNRLIFTNEQYWLHSRGSRPGEVGLLGGNKDESDLKKLAAQQKSPLIDDILNSTRVYHFHDTGEKAKVKQPHALNDTLRLKVDGANLAAYLRMLKTEHAESYRQIVDTIRLVAPFFDDFVFRADSASKIQLEWTERGDPDTPFTAHALSDGTLRFICLGTLLLQPWELMPATILIDEPELGLHPYAINLLADLLKRASEQKQLIVSTQSVELLDRLEPEDVIVVDRKDNASTFHRLDAVQLQDWLDDYSLGDLWKQNVLGGRPA, MGSDKIHHHHHHMAHHHGMRFPTPLIPATLIKRYKRFLADCRLEDGREITAHCANPGSMMGLAEPGMRVWLEPNDDPKKKLKYGWRLVEHTNGHFTGVDTSVPNRALKAALEAHEIAEFAAYSEVQAEVKYGQNSRIDFLLTDAKLPRCYVEVKSVTLSRQPGLAEFPDSVTARGTKHLRELAAMAEAGHRAVMLYLVQRTDCDRFALAADIDPAYAAEFETAHAKGVERLVIGTTITPEGVKIGDILPS, MGSDKIHHHHHHMAIACVMTRASCGVQAPKVIVEVHLSNGLPGFSLVGLPEASVKEAKERVRSALINAGFEFPMQRITVNLAPADLPKQGGRYDLPIAIGILAASEQIPKKAIADAEFVGELALTGQVRPCVGLLPAIIAARDDGHPMFMPLDNRHEAELVGYQQCHFVADLQHLAAFIHGQGQLPKVDNQTQWITESAVDPKLCLSDVIGQYQAKQGLEIAAAGGHNLLLMGPPGTGKSMLASRIIPLLPNLSYQEAIEVAAIHSVAGLNTPSHNFLQRPFRSPHHTCSAISLVGGGSVPKPGEISLAHRGILFLDELPEFPRRVLDCLREPMETGEVVISRAAAKLTFASRFQLIAAMNPSPCGNVDKARSTPDQIQRYLSRLSGPFLDRFDLTVDVPKLPSGALSQANIQAETSISVAARVRKAREKQLERSGVLNNELSPKALKKVANLDQANLIFLEQSVQLLGLSVRSFHKIQRVACTIADLQEEAKVDRAHLAQALGYRAMDRLIARLRQQ
